Experimental data: publication PMC4551920
Read-outs that look alike come from different tables or passages of the source.

Assays:
CUGBP1-Flag [1] = target: T1, CUGBP1-Flag (UniProt Q92879 1-486); assay: EMSA
CUGBP1-Flag [2] = target: T1, CUGBP1-Flag; assay: EMSA; remark: listed apart in the source

T1 sequence (Q92879 whole entry): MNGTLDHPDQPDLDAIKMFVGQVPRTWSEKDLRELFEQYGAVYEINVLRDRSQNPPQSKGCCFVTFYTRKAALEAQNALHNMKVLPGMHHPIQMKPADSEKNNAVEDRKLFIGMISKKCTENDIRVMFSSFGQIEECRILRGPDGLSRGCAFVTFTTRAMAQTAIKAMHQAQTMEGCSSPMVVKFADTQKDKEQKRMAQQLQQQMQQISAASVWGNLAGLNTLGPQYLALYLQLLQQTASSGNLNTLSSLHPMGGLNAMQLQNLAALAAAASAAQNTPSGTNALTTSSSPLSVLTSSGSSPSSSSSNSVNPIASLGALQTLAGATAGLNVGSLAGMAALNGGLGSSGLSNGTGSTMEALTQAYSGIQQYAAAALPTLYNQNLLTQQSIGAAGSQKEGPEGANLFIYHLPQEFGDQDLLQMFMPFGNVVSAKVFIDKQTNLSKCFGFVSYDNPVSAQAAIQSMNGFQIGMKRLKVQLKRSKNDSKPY

Binder	binding result (CUGBP1-Flag [1])	binding result (CUGBP1-Flag [2])
UGGAGUGUGACAAUGGUGUUUGAAAAA (ssRNA) [miR-122 27-nt (3'-a5)]	binds	
UAGCAGCACGUAAAUAUUGGCG (ssRNA) [miR-16]		no binding
UGGAGUGUGACAAUGGUGUUUGA (ssRNA) [miR-122 23-nt (3'-a)]	binds	
UGGAGUGUGACAAUGGCCCCCC (ssRNA) [miR-122 17-22C]	no binding	
